In the supplement of paper PMC10126150:
± gives the standard deviation of the averaged measurements.

Tested on: ATP
Experiment: switch fluorescence ratio, 500 uM ATP over buffer (Cy3 cluster intensity, sum of 5 cycles each) (fold (ratio)); higher = stronger signal-on switching upon ATP binding; sequences stand for … in TCGTCGGCAGCGTCAGATGTGTATAAGAGACAGTTTTTTTTTTTTTTTTTTTTTTTTT…TC
Conditions: aptamer strand: ATP DNA aptamer (quencher-CACCTGGGGGAGTATTGCGGAGGAAGG + anchor), 100 nM annealed; ATP concentration: 500 uM
How it was run: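 The fluorescence ratio divides summed target-cycle Cy3 intensity by summed buffer-cycle Cy3 intensity for each cluster and is averaged per switch-domain sequence. Cy3-labelled switching-strand clusters on a modified Illumina MiSeq flow-cell were annealed to 100 nM quencher-labelled ATP aptamer, then imaged in selection buffer and again after 15 min with 500 uM ATP at 22 °C. Five such cycles were run, with NaOH stripping and re-annealing between them, and clusters outside 100-1000 RFU were excluded.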
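Further: ATP exposure 15 min at 22 °C before imaging.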

Point of comparison: GGTTGGGGCA, switch fluorescence ratio 0.985 ± 0.049. Against it:
- GGTGCTGGTG — within error, 1.05 ± 0.025
- GGTGGAACAG — within error, 1.02 ± 0.028
- GGTGGAAGAT — within error, 1 ± 0.045
- GGTGGAAGTA — within error, 0.998 ± 0.064
- GGTGGAATCT — within error, 1.02 ± 0.052
- GGTGGACACT — within error, 1.03 ± 0.024
- GGTGGACTTA — within error, 1.01 ± 0.03
- GGTGGAGTCG — within error, 1.009 ± 0.0085
- GGTGGATTTG — within error, 0.981 ± 0.062
- GGTGGCAAGG — within error, 0.9912 ± 0.0094
- GGTGGCCCAA — within error, 1.001 ± 0.0059
- GGTGGGAACA — within error, 0.992 ± 0.03
- GGTGGGAGCT — within error, 1.01 ± 0.075
- GGTGGGATCA — within error, 1.09 ± 0.18
- GGTGGGATTC — within error, 1.01 ± 0.014
- GGTGGGCTAA — within error, 0.9827 ± 0.0057
- GGTGGGGATT — within error, 1.07 ± 0.17
- GGTGGGGGG — within error, 0.977 ± 0.012
- GGTGGGGGGC — within error, 0.978 ± 0.048
- GGTGGGGGTA — within error, 1.04 ± 0.042
- GGTGGGGGTC — within error, 1.02 ± 0.022
- GGTGGGGGTT — within error, 0.999 ± 0.036
- GGTGGGGT — within error, 1.01 ± 0.0055
- GGTGGGGTAT — within error, 0.98 ± 0.021
- GGTGGGTACG — within error, 0.986 ± 0.052
- GGTGGGTGGA — within error, 1 ± 0.021
- GGTGGGTGGT — within error, 0.99 ± 0.036
- GGTGGGTGTG — within error, 1 ± 0.036
- GGTGGTTGGC — within error, 1.007 ± 0.0075
- GGTGGTTGTT — within error, 1.01 ± 0.043
- GGTGTAAAAG — within error, 1.014 ± 0.0036
- GGTGTAGCGC — within error, 1.015 ± 0.0075
- GGTGTCAGGG — within error, 0.989 ± 0.013
- GGTGTCGCTA — within error, 0.9795 ± 0.0094
- GGTGTCGTCA — within error, 1.024 ± 0.0081
- GGTGTCGTTT — within error, 1.02 ± 0.024
- GGTGTCTGCA — within error, 0.9931 ± 0.0019
- GGTGTGAGAG — within error, 1.02 ± 0.038
- GGTGTGCCAT — within error, 0.9897 ± 0.0069
- GGTGTGGCGA — within error, 1.03 ± 0.11
- GGTGTGGTGA — within error, 1.06 ± 0.049
- GGTGTGTGAC — within error, 0.999 ± 0.016
- GGTGTGTGAG — within error, 0.965 ± 0.01
- GGTGTGTGTT — within error, 0.9951 ± 0.0078
- GGTGTTGAGT — within error, 0.993 ± 0.037
- GGTGTTGGAT — within error, 1.01 ± 0.002
- GGTGTTGGGC — within error, 0.998 ± 0.067
- GGTGTTGGTA — within error, 0.974 ± 0.029
- GGTGTTGTCT — within error, 1.031 ± 0.0061
- GGTGTTTAAG — within error, 0.9717 ± 0.0067
- GGTGTTTGTT — within error, 0.956 ± 0.065
- GGTTAAAACT — within error, 0.987 ± 0.048
- GGTTAAAGGA — within error, 0.95798 ± 0.00066
- GGTTAACGGA — within error, 1 ± 0.016
- GGTTAACTGT — within error, 1.01 ± 0.026
- GGTTAAGAAA — within error, 1.021 ± 0.0081
- GGTTAAGAGG — within error, 1.02 ± 0.041
- GGTTAGGGCG — within error, 1.0062 ± 0.00068
- GGTTAGGGTG — higher, 1.047 ± 0.007
- GGTTAGTACA — within error, 1.01 ± 0.041
- GGTTATAAGT — within error, 0.975 ± 0.034
- GGTTATATTT — within error, 1.03 ± 0.072
- GGTTATGCAG — within error, 0.977 ± 0.1
- GGTTATGGAG — within error, 0.964 ± 0.046
- GGTTATTCGG — within error, 0.993 ± 0.053
- GGTTCAACAT — the same, 0.985 ± 0.049
- GGTTCAAGGC — within error, 1.05 ± 0.051
- GGTTCATCGG — within error, 0.9912 ± 0.0029
- GGTTCATGAT — within error, 0.993 ± 0.024
- GGTTCCGCGG — higher, 1.11 ± 0.025
- GGTTCCGGTA — within error, 0.9998 ± 0.00095
- GGTTCGAGAC — within error, 1.01 ± 0.025
- GGTTCGGGGT — within error, 0.982 ± 0.012
- GGTTCGTCAC — within error, 1.11 ± 0.1
- GGTTCGTCGT — within error, 0.987 ± 0.02
- GGTTCGTGTC — within error, 0.974 ± 0.016
- GGTTCTCAGG — within error, 1.02 ± 0.011
- GGTTCTGGCG — within error, 0.992 ± 0.045
- GGTTCTGGGC — within error, 0.9601 ± 0.0026
- GGTTCTTGGT — within error, 0.949 ± 0.028
- GGTTCTTTTT — within error, 1.02 ± 0.011
- GGTTGAAGGG — within error, 1.014 ± 0.0091
- GGTTGAATGA — within error, 0.992 ± 0.053
- GGTTGAGGCG — within error, 0.981 ± 0.054
- GGTTGAGGTC — within error, 1 ± 0.023
- GGTTGAGTCG — within error, 0.989 ± 0.014
- GGTTGAGTTC — within error, 0.948 ± 0.036
- GGTTGATCCG — within error, 1.01 ± 0.0092
- GGTTGCGATC — higher, 1.08 ± 0.03
- GGTTGCGGGG — the same, 0.9855 ± 0.0082
- GGTTGCTTGA — the same, 0.9848 ± 0.002
- GGTTGGCAGA — within error, 0.99 ± 0.059
- GGTTGGGCGG — within error, 1.01 ± 0.026
- GGTTGGGCTC — within error, 1.001 ± 0.0099
- GGTTGGGGAG — the same, 0.985 ± 0.019
- GGTTGGGGCT — within error, 0.987 ± 0.039
- GGTTGGGGGA — within error, 1.02 ± 0.024
- GGTTGGTTGT — within error, 1.15 ± 0.21
- GGTTGTGGGC — within error, 0.992 ± 0.019
